Measurements taken from publication PMC11693862 (Acta Biochimica et Biophysica Sinica, 2024).

How the values were obtained:
Experiment in all cases: crystal structure
[1] = target: SARS-CoV-2 M pro V186F (SARS-CoV-2)
[2] = target: SARS-CoV-2 M pro G15S (SARS-CoV-2)
[3] = target: SARS-CoV-2 M pro P132H (SARS-CoV-2)
[4] = target: SARS-CoV-2 M pro K90R (SARS-CoV-2)
[5] = target: SARS-CoV-2 M pro M49I (SARS-CoV-2)
[6] = target: SARS-CoV-2 M pro Y54C (SARS-CoV-2)
[7] = target: SARS-CoV-2 M pro S46F (SARS-CoV-2)

With SARS-CoV-2 M pro V186F (enzyme) the stoichiometry N [1] was 2.
With SARS-CoV-2 M pro G15S (enzyme) the stoichiometry N [2] was 2.
SARS-CoV-2 M pro P132H (enzyme) was tested, and the stoichiometry N [3] was 2.
Work on SARS-CoV-2 M pro K90R (enzyme) yielded a stoichiometry N [4] of 2.
With SARS-CoV-2 M pro M49I (enzyme) the stoichiometry N [5] was 2.
SARS-CoV-2 M pro Y54C (enzyme) showed a stoichiometry N [6] of 2.
Substance SARS-CoV-2 M pro S46F (enzyme) has a stoichiometry N [7] of 2.
